Source: PMC10514306, “The CBL1/9-CIPK1 calcium sensor negatively regulates drought stress by phosphorylating the PYLs ABA receptor” (Nature Communications, 2023)

T1: CIPK1-His (Arabidopsis, UniProt Q8RWC9 1-444)
T1 construct: source: E. coli BL21 (Rosetta), purified; not shown: 6xHis, C-terminal, kept
T1 sequence (looked up): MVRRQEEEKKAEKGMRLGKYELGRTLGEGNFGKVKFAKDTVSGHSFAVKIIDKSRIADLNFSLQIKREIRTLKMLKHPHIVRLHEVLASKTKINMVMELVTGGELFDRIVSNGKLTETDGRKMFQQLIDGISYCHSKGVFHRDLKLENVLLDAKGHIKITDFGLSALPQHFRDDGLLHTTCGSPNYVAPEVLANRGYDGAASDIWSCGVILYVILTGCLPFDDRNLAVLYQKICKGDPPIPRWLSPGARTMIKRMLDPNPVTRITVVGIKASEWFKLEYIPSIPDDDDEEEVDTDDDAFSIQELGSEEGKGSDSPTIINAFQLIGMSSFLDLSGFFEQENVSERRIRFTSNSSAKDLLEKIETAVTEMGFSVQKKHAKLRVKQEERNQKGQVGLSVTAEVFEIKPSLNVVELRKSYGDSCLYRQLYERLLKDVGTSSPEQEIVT


Biological target: T1, CIPK1-His
Assay: pull-down; 5 ug GST-PYR1/PYLs on GST resin at 4 C for 2 h, then 2 ug CIPK1-His for 2 h in pull-down buffer; 6 washes; blots with anti-His and anti-GST
Conditions: both partners purified

Row | Binder | binding result
1 | GST-PYR1 (receptor, Arabidopsis, UniProt O49686 1-191, looked up, PYR1, ABA receptor, Arabidopsis; source: recombinant protein, purified; not shown: GST, N-terminal, kept) MPSELTPEERSELKNSIAEFHTYQLDPGSCSSLHAQRIHAPPELVWSIVRRFDKPQTYKHFIKSCSVEQNFEMRVGCTRDVIVISGLPANTSTERLDILDDERRVTGFSIIGGEHRLTNYKSVTTVHRFEKENRIWTVVLESYVVDMPEGNSEDDTRMFADTVVKLNLQKLATVAEAMARNSGDGSGSQVT | binds
2 | GST-PYL1 (receptor, Arabidopsis, UniProt Q8VZS8 1-221, looked up, PYL1, ABA receptor, Arabidopsis; source: recombinant protein, purified; not shown: GST, N-terminal, kept) MANSESSSSPVNEEENSQRISTLHHQTMPSDLTQDEFTQLSQSIAEFHTYQLGNGRCSSLLAQRIHAPPETVWSVVRRFDRPQIYKHFIKSCNVSEDFEMRVGCTRDVNVISGLPANTSRERLDLLDDDRRVTGFSITGGEHRLRNYKSVTTVHRFEKEEEEERIWTVVLESYVVDVPEGNSEEDTRLFADTVIRLNLQKLASITEAMNRNNNNNNSSQVR | binds
3 | GST-PYL2 (receptor, Arabidopsis, UniProt O80992 1-190, looked up, PYL2, ABA receptor, Arabidopsis; source: recombinant protein, purified; not shown: GST, N-terminal, kept) MSSSPAVKGLTDEEQKTLEPVIKTYHQFEPDPTTCTSLITQRIHAPASVVWPLIRRFDNPERYKHFVKRCRLISGDGDVGSVREVTVISGLPASTSTERLEFVDDDHRVLSFRVVGGEHRLKNYKSVTSVNEFLNQDSGKVYTVVLESYTVDIPEGNTEEDTKMFVDTVVKLNLQKLGVAATSAPMHDDE | binds
4 | GST-PYL3 (receptor, Arabidopsis, UniProt Q9SSM7 1-209, looked up, PYL3, ABA receptor, Arabidopsis; source: recombinant protein, purified; not shown: GST, N-terminal, kept) MNLAPIHDPSSSSTTTTSSSTPYGLTKDEFSTLDSIIRTHHTFPRSPNTCTSLIAHRVDAPAHAIWRFVRDFANPNKYKHFIKSCTIRVNGNGIKEIKVGTIREVSVVSGLPASTSVEILEVLDEEKRILSFRVLGGEHRLNNYRSVTSVNEFVVLEKDKKKRVYSVVLESYIVDIPQGNTEEDTRMFVDTVVKSNLQNLAVISTASPT | binds
5 | GST-PYL4 (receptor, Arabidopsis, UniProt O80920 1-207, looked up, PYL4, ABA receptor, Arabidopsis; source: recombinant protein, purified; not shown: GST, N-terminal, kept) MLAVHRPSSAVSDGDSVQIPMMIASFQKRFPSLSRDSTAARFHTHEVGPNQCCSAVIQEISAPISTVWSVVRRFDNPQAYKHFLKSCSVIGGDGDNVGSLRQVHVVSGLPAASSTERLDILDDERHVISFSVVGGDHRLSNYRSVTTLHPSPISGTVVVESYVVDVPPGNTKEETCDFVDVIVRCNLQSLAKIAENTAAESKKKMSL | binds
6 | GST-PYL5 (receptor, Arabidopsis, UniProt Q9FLB1 1-203, looked up, PYL5, ABA receptor, Arabidopsis; source: recombinant protein, purified; not shown: GST, N-terminal, kept) MRSPVQLQHGSDATNGFHTLQPHDQTDGPIKRVCLTRGMHVPEHVAMHHTHDVGPDQCCSSVVQMIHAPPESVWALVRRFDNPKVYKNFIRQCRIVQGDGLHVGDLREVMVVSGLPAVSSTERLEILDEERHVISFSVVGGDHRLKNYRSVTTLHASDDEGTVVVESYIVDVPPGNTEEETLSFVDTIVRCNLQSLARSTNRQ | binds
7 | GST-PYL6 (receptor, Arabidopsis, UniProt Q8S8E3 1-215, looked up, PYL6, ABA receptor, Arabidopsis; source: recombinant protein, purified; not shown: GST, N-terminal, kept) MPTSIQFQRSSTAAEAANATVRNYPHHHQKQVQKVSLTRGMADVPEHVELSHTHVVGPSQCFSVVVQDVEAPVSTVWSILSRFEHPQAYKHFVKSCHVVIGDGREVGSVREVRVVSGLPAAFSLERLEIMDDDRHVISFSVVGGDHRLMNYKSVTTVHESEEDSDGKKRTRVVESYVVDVPAGNDKEETCSFADTIVRCNLQSLAKLAENTSKFS | binds
